Assay results as given in US20260049138A1 (Chugai, published 2026).
Residue numbers refer to the chain shown, from its start. In names and notes the source's numbering stands. Values belong to the binder of their own block, whether it stands above or below them.

Tests used:
human CD154 [1] = target: T1, human CD154 (human, UniProt P29965 113-261, limits assumed, biotin-labeled); test: ECL competition, CD3ε[+]: CD3ε homodimer added as competitor [2]
T1 construct: also called biotin-labeled human CD154; biotinylated human CD154
T1 sequence (looked up): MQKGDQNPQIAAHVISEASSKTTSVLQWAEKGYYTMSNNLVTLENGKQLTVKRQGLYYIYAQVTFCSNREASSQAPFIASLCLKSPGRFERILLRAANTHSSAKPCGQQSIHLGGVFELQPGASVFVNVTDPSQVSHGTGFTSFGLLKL
Method: (§1) Next, each obtained IgG was evaluated for its binding to CD3 and human CD154 at the same time by the competition method (electrochemiluminescence method (ECL method)).
(§2) A TBST solution containing 0.5% BSA (referred to as a blocking solution; the TBST solution was TBS (manufactured by Takara Bio Inc.) supplemented with 0.1% Tween 20) was added at 150 μL/well to streptavidin plate (MSD K.K.), and the plate was incubated at room temperature for 1 hour or longer. After removal of the blocking solution, each well was washed three times with 250 μL of a TBST solution. The antibody-antigen complex solution was added thereto at 50 μL/well, and the plate was incubated at room temperature for 1 hour so that the biotinylated antigen-antibody-detection sulfo-tag antibody complex solution bound via the biotinylated antigen to the streptavidin plate. After removal of the antibody-antigen complex solution, each well was washed three times with a TBST solution, and a solution of 4×READ buffer (MSD K.K.) diluted 2-fold with water was added thereto at 150 μL/well, followed by the detection of the luminescence signal of the sulfo-tag using Sector Imager 2400 (MSD K.K.).

human CD154 [2] = target: T1, human CD154; test: ECL competition, CD3ε[+]: CD3ε homodimer added as competitor [1]
Method: as §1, §2

CD3ε homodimer protein [3] = target: T2, CD3ε homodimer protein (human, UniProt P07766 23-126, limits assumed); test: SPR (Biacore T200), one-arm antibody as analyte over immobilised CD3ε homodimer protein, single-cycle kinetics
T2 construct: also called human CD3ε homodimer protein
T2 sequence (P07766 23-126 limits assumed): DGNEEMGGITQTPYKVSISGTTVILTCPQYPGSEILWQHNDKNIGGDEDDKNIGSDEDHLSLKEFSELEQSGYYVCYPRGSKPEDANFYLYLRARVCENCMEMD

CD3ε homodimer protein [4] = target: CD3ε homodimer protein (human, UniProt P07766 23-126, limits assumed); test: SPR Biacore T200, CD3e homodimer on chip
Target sequence in this assay (P07766 23-126 limits assumed): as above
Method: An appropriate amount of CD3ε homodimer protein was immobilized onto Sensor chip CM4 (GE Healthcare Japan Corp.) by the amine coupling method. Then, the antibody having an appropriate concentration was injected thereto as an analyte and allowed to interact with the CD3ε homodimer protein on the sensor chip. Then, the sensor chip was regenerated by the injection of 10 mmol/L glycine-HCl (pH 1.5). The assay was conducted at 25° C., and HBS-EP+ (GE Healthcare Japan Corp.) was used as a running buffer. […] Each parameter was calculated using Biacore T200 Evaluation Software (GE Healthcare Japan Corp.).

CD3ε homodimer protein [5] = target: T3, CD3ε homodimer protein (human, UniProt P07766 23-126, limits assumed); test: SPR
T3 construct: also called CD3 (CD3ε)
T3 sequence (P07766 23-126 limits assumed): as above
Method: Each one-amino acid altered form constructed, expressed, and purified in the paragraph (6-2) was evaluated using Biacore T200 (GE Healthcare Japan Corp.). An appropriate amount of CD3ε homodimer protein was immobilized onto Sensor chip CM4 (GE Healthcare Japan Corp.) by the amine coupling method. Then, the antibody having an appropriate concentration was injected thereto as an analyte and allowed to interact with the CD3ε homodimer protein on the sensor chip. Then, the sensor chip was regenerated by the injection of 10 mmol/L glycine-HCl (pH 1.5). The assay was conducted at 25° C., and HBS-EP+ (GE Healthcare Japan Corp.) was used as a running buffer. […] Each parameter was calculated using Biacore T200 Evaluation Software (GE Healthcare Japan Corp.).
Specifically, when the amount of the GLS3000-containing antibody bound was defined as X and the amount of the L chain one-amino acid altered form bound was defined as Y, a value of Z (ratio of amounts bound)=Y/X was used.

B1: 154R5A02#1 one-arm antibody (antibody, human IgG1, kappa, L234A L235A, N297A)
heavy: QVQLVESGGGLVQPGRSLRLSCAASGFTFSNAWMHWVRQAPGKGLEWVAQIKDRGNNYNTYYAPSVKGRFTISRDDSKNSIYLQMNSLKTEDTAVYYCRYVHYGSYFFSGSSFGVDIWGQGTTVTVSSASTKGPSVFPLAPSSKSTSGGTAALGCLVKDYFPEPVTVSWNSGALTSGVHTFPAVLQSSGLYSLSSVVTVPSSSLGTQTYICNVNHKPSNTKVDKKVEPKSCDKTHTCPPCPAPEAAGGPSVFLFPPKPKDTLMISRTPEVTCVVVDVSHEDPEVKFNWYVDGVEVHNAKTKPREEQYASTYRVVSVLTVLHQDWLNGKEYKCKVSNKALPAPIEKTISKAKGQPREPQVYTLPPSRCELTKNQVSLSCAVKGFYPSDIAVEWESNGQPENNYKTTPPVLDSDGSFFLVSKLTVDKSRWQQGNVFSCSVMHEALHNHYTQKSLSLSPDYKDDDDK
chain: EPKSSDKTHTCPPCPAPELLGGPSVFLFPPKPKDTLMISRTPEVTCVVVDVSHEDPEVKFNWYVDGVEVHNAKTKPREEQYNSTYRVVSVLTVLHQDWLNGKEYKCKVSNKALPAPIEKTISKAKGQPREPQVCTLPPSRDELTKNQVSLWCLVKGFYPSDIAVEWESNGQPENNYKTTPPVLDSDGSFFLYSKLTVDKSRWQQGNVFSCSVMHEALHNRYTQKSLSLSP
light: DIVMTQSPLSLPVTPGEPASISCRSSQSLVHSNRNTYLHWYQQKPGQAPRLLIYKVSNRFSGVPDRFSGSGSGTDFTLKISRVEAEDVGVYYCGQGTQVPYTFGQGTKLEIKRTVAAPSVFIFPPSDEQLKSGTASVVCLLNNFYPREAKVQWKVDNALQSGNSQESVTEQDSKDSTYSLSSTLTLSKADYEKHKVYACEVTHQGLSSPVTKSFNRGEC
notes: As m48
- relative ECL reaction (to no antigen coating) (human CD154 [1]): 10

B2: 154R4B03#4 one-arm antibody (antibody, human IgG1, kappa, L234A L235A, N297A)
heavy: QVQLVESGGGLVQPGRSLRLSCAASGFTFSNAWMHWVRQAPGKGLEWVAQIKDKQSQYANYYAPSVKGRFTISRDDSKSSIYLQMNSLKTEDTAVYYCRYVHYQSTSYSFYQGGVDAWGQGTTVTVSSASTKGPSVFPLAPSSKSTSGGTAALGCLVKDYFPEPVTVSWNSGALTSGVHTFPAVLQSSGLYSLSSVVTVPSSSLGTQTYICNVNHKPSNTKVDKKVEPKSCDKTHTCPPCPAPEAAGGPSVFLFPPKPKDTLMISRTPEVTCVVVDVSHEDPEVKFNWYVDGVEVHNAKTKPREEQYASTYRVVSVLTVLHQDWLNGKEYKCKVSNKALPAPIEKTISKAKGQPREPQVYTLPPSRCELTKNQVSLSCAVKGFYPSDIAVEWESNGQPENNYKTTPPVLDSDGSFFLVSKLTVDKSRWQQGNVFSCSVMHEALHNHYTQKSLSLSPDYKDDDDK
chain: B1 chain
light: B1 light
notes: As m48
- relative ECL reaction (to no antigen coating) (human CD154 [2]): 20

B5: 154R4B03#1 one-arm antibody (antibody, human IgG1, kappa, L234A L235A, N297A)
heavy: B2 heavy with S79N
chain: B1 chain
light: B1 light
notes: As m48
- relative ECL reaction (to no antigen coating) (human CD154 [2]): 18

B6: 154R3F02#2 one-arm antibody (antibody, human IgG1, kappa, L234A L235A, N297A)
heavy: QVQLVESGGGLVQPGRSLRLSCAASGFTFSNAWMHWVRQAPGKGLEWVAQIKDRASGYNNYYAESVKGRFTISRDDSKNSIYLQMNSLKTEDTAVYYCRYVHYAQSVSAFFQYGVDAWGQGTTVTVSSASTKGPSVFPLAPSSKSTSGGTAALGCLVKDYFPEPVTVSWNSGALTSGVHTFPAVLQSSGLYSLSSVVTVPSSSLGTQTYICNVNHKPSNTKVDKKVEPKSCDKTHTCPPCPAPEAAGGPSVFLFPPKPKDTLMISRTPEVTCVVVDVSHEDPEVKFNWYVDGVEVHNAKTKPREEQYASTYRVVSVLTVLHQDWLNGKEYKCKVSNKALPAPIEKTISKAKGQPREPQVYTLPPSRCELTKNQVSLSCAVKGFYPSDIAVEWESNGQPENNYKTTPPVLDSDGSFFLVSKLTVDKSRWQQGNVFSCSVMHEALHNHYTQKSLSLSPDYKDDDDK
chain: B1 chain
light: B1 light
notes: As m48
- relative ECL reaction (to no antigen coating) (human CD154 [2]): 16

B10: CE115HA000 D101K one-arm antibody (antibody, human IgG1, kappa, L234A L235A, N297A, name in Kabat numbering)
heavy: QVQLVESGGGVVQPGRSLRLSCAASGFTFSNAWMHWVRQAPGKGLEWVAQIKAKSNNYATYYAESVKGRFTISRDDSKNSLYLQMNSLKTEDTAVYYCRYVHYGAYYGVKAWGQGTTVTVSSASTKGPSVFPLAPSSKSTSGGTAALGCLVKDYFPEPVTVSWNSGALTSGVHTFPAVLQSSGLYSLSSVVTVPSSSLGTQTYICNVNHKPSNTKVDKKVEPKSCDKTHTCPPCPAPEAAGGPSVFLFPPKPKDTLMISRTPEVTCVVVDVSHEDPEVKFNWYVDGVEVHNAKTKPREEQYASTYRVVSVLTVLHQDWLNGKEYKCKVSNKALPAPIEKTISKAKGQPREPQVYTLPPSRCELTKNQVSLSCAVKGFYPSDIAVEWESNGQPENNYKTTPPVLDSDGSFFLVSKLTVDKSRWQQGNVFSCSVMHEALHNHYTQKSLSLSPDYKDDDDK
chain: B1 chain
light: B1 light
- KD ratio (KD of CE115HA000/KD of altered form) (CD3ε homodimer protein [4]): 4.32

B12: CE115HA000 A52aE one-arm antibody (antibody, human IgG1, kappa, L234A L235A, N297A, name in Kabat numbering)
heavy: B10 heavy with A53E, K110D
chain: B1 chain
light: B1 light
- KD ratio (KD of CE115HA000/KD of altered form) (CD3ε homodimer protein [4]): 0.88

B13: 154R5F08#1 one-arm antibody (antibody, human IgG1, kappa, L234A L235A, N297A)
heavy: B1 heavy with R54K, N57Q, N59A, P64E, S105T, S109A, G110L, S111P, S112A
chain: B1 chain
light: B1 light
notes: As m48
- relative ECL reaction (to no antigen coating) (human CD154 [1]): 13

B14: 154R5A02#2 one-arm antibody (antibody, human IgG1, kappa, L234A L235A, N297A)
heavy: B1 heavy with V101A
chain: B1 chain
light: B1 light
notes: As m48
- relative ECL reaction (to no antigen coating) (human CD154 [1]): 106

B17: CE115HA000 D101R one-arm antibody (antibody, human IgG1, kappa, L234A L235A, N297A, name in Kabat numbering)
heavy: B10 heavy with K110R
chain: B1 chain
light: B1 light
- KD ratio (KD of CE115HA000/KD of altered form) (CD3ε homodimer protein [4]): 5.55

B18: 154R5E11#3 one-arm antibody (antibody, human IgG1, kappa, L234A L235A, N297A)
heavy: B1 heavy with N59A, T60A, P64E, S109A, G110S, S111F, S112Y, T123A
chain: B1 chain
light: B1 light
notes: As m48
- relative ECL reaction (to no antigen coating) (human CD154 [1]): 1

B19: 154R5F08#3 one-arm antibody (antibody, human IgG1, kappa, L234A L235A, N297A)
heavy: B1 heavy with R54K, N57Q, N59A, P64E, F70Y, S105T, S109A, G110L, S111P, S112A
chain: B1 chain
light: B1 light
notes: As m48
- relative ECL reaction (to no antigen coating) (human CD154 [1]): 10

Second part, the binder after the results:

- Kd (CD3ε homodimer protein [3]): 31 nM
B3: One-arm antibody: NNS6f47 (CE115HA340 with HFMWWG inserted between Kabat positions 99 and 100) / Kn010G3 / GLS3000-kappa (antibody)
chain 1: QVQLVESGGGLVQPGRSLRLSCAASGFTFSNAWMHWVRQAPGKGLEWVAQIKDKSNNYATYYAESVKGRFTISRDDSKNSIYLQMNSLKTEDTAVYYCRYVHYAAHFMWWGYYGVDAWGQGTTVTVSSASTKGPSVFPLAPSSKSTSGGTAALGCLVKDYFPEPVTVSWNSGALTSGVHTFPAVLQSSGLYSLSSVVTVPSSSLGTQTYICNVNHKPSNTKVDKKVEPKSCDKTHTCPPCPAPEAAGGPSVFLFPPKPKDTLMISRTPEVTCVVVDVSHEDPEVKFNWYVDGVEVHNAKTKPREEQYASTYRVVSVLTVLHQDWLNGKEYKCKVSNKALPAPIEKTISKAKGQPREPQVYTLPPSRCELTKNQVSLSCAVKGFYPSDIAVEWESNGQPENNYKTTPPVLDSDGSFFLVSKLTVDKSRWQQGNVFSCSVMHEALHNHYTQKSLSLSPDYKDDDDK
chain 2: B1 chain
chain 3: B1 light

- Kd (CD3ε homodimer protein [3]): 29 nM
B4: One-arm antibody: NNS6f54 (CE115HA340 with FEWVGW inserted between Kabat positions 99 and 100) / Kn010G3 / GLS3000-kappa (antibody)
chain 1: B3 chain 1 with H106F, F107E, M108W, W109V, W110G, G111W
chain 2: B1 chain
chain 3: B1 light

- Kd (CD3ε homodimer protein [3]): 31 nM
B7: One-arm antibody: NNS6f51 (CE115HA340 with GFLVLW inserted between Kabat positions 99 and 100) / Kn010G3 / GLS3000-kappa (antibody)
chain 1: B3 chain 1 with H106G, M108L, W109V, W110L, G111W
chain 2: B1 chain
chain 3: B1 light

- KD ratio (KD of CE115HA000/KD of altered form) (CD3ε homodimer protein [4]): 0.88
B8: CE115HA000 S52cK one-arm antibody (antibody, human IgG1, kappa, L234A L235A, N297A, name in Kabat numbering)
heavy: B10 heavy with S55K, K110D
chain: B1 chain
light: B1 light

- KD ratio (KD of CE115HA000/KD of altered form) (CD3ε homodimer protein [4]): 56600
B9: CE115HA000 W33L one-arm antibody (antibody, human IgG1, kappa, L234A L235A, N297A, name in Kabat numbering)
heavy: B10 heavy with W33L, K110D
chain: B1 chain
light: B1 light

- KD ratio (KD of CE115HA000/KD of altered form) (CD3ε homodimer protein [4]): 22.8
B11: CE115HA000 Q50A one-arm antibody (antibody, human IgG1, kappa, L234A L235A, N297A, name in Kabat numbering)
heavy: B10 heavy with Q50A, K110D
chain: B1 chain
light: B1 light

- KD ratio (KD of CE115HA000/KD of altered form) (CD3ε homodimer protein [4]): 18.4
B15: CE115HA000 K52E one-arm antibody (antibody, human IgG1, kappa, L234A L235A, N297A, name in Kabat numbering)
heavy: B10 heavy with K52E, K110D
chain: B1 chain
light: B1 light

- KD ratio (KD of CE115HA000/KD of altered form) (CD3ε homodimer protein [4]): 1.85
B16: CE115HA000 G98K one-arm antibody (antibody, human IgG1, kappa, L234A L235A, N297A, name in Kabat numbering)
heavy: B10 heavy with G104K, K110D
chain: B1 chain
light: B1 light

- KD ratio to GLS3000 (CD3ε homodimer protein [5]): 32.7
B20: GLS3000 L33P (antibody, name in Kabat numbering, V domains shown)
VH: QVQLVESGGGVVQPGRSLRLSCAASGFTFSNAWMHWVRQAPGKGLEWVAQIKAKSNNYATYYAESVKGRFTISRDDSKNSLYLQMNSLKTEDTAVYYCRYVHYGAYYGVDAWGQGTTVTVSS
VL: DIVMTQSPLSLPVTPGEPASISCRSSQSLVHSNRNTYPHWYQQKPGQAPRLLIYKVSNRFSGVPDRFSGSGSGTDFTLKISRVEAEDVGVYYCGQGTQVPYTFGQGTKLEIK
notes: one-arm, rest as m2
